Measurements: patent US8933202B2, “AXL antibodies” (U3 Pharma GmbH, priority 2007, dated 2015)

Columns and labels:
AXL = target: T1, AXL (Homo sapiens, UniProt P30530); assay: Axl phosphorylation ELISA, rat versus chimeric antibody; type: cell-based; design: endogenous in cells; host or cells: CaSki cervical cancer cells
T1 sequence (P30530 26-894): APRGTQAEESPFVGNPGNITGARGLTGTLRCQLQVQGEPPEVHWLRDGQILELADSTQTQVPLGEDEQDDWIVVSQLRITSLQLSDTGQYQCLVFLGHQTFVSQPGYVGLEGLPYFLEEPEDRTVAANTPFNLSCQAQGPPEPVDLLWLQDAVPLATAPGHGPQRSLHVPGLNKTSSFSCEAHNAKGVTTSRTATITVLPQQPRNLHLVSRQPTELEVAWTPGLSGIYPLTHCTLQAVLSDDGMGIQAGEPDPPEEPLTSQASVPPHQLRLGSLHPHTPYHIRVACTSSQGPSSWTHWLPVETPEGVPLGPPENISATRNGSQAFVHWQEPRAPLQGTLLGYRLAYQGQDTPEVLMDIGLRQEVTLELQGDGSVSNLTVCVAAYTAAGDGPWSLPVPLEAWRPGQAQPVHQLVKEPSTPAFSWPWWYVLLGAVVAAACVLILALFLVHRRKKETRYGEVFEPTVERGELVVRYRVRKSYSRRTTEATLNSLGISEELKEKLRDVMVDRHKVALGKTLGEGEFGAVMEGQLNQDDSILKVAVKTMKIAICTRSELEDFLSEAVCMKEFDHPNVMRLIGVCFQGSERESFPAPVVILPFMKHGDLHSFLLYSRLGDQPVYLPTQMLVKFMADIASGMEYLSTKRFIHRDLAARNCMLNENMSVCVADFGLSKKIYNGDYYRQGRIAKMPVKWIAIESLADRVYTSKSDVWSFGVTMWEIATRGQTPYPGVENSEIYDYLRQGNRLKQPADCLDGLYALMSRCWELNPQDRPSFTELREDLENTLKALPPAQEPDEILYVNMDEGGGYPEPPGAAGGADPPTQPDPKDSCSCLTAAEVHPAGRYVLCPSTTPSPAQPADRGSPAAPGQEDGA
Protocol: In order to investigate whether the rat anti-Axl antibodies of the invention and the corresponding chimeric anti-Axl antibodies of the invention were able to inhibit ligand Gas6-mediated Axl activation in vitro to similar extent, ELISA experiments on CaSki cervical cancer cells were performed. Gas6-mediated Axl activation was thereby detected by increased receptor tyrosine phosphorylation. In brief, on day 1, 3×10^4 cells per well were seeded in normal growth medium in flat-bottom 96 well plates. The next day, growth medium was replaced by serum-free medium to starve cells over night for 24 h. Also over night, black Maxi-Sorp 96 well plates (Nunc) were coated with mouse anti-phospho-tyrosine antibody 4G10 at 2 μg/ml PBS and 4° C. On day 3, the 4G10 antibody solution was removed and Maxi-Sorp wells were blocked with PBS, 0.5% BSA for at lest 4 h at room temperature. In parallel, cells were pre-incubated with 50 ng/ml, 100 ng/ml, 300 ng/ml, 750 ng/ml, 1 μg/ml, and 10 μg/ml of rat anti-Axl antibody 11B7 or chimeric anti-Axl antibody ch11B7 for 1 h at 37° C. and subsequently treated with or without 400 ng/ml Gas6 (R&D Systems) for 10 min at 37° C. […] Using a Victor plate reader (Perkin Elmer), the fluorescence of each well was collected at an excitation wavelength of 430 nm and an emission wavelength of 580 nm.

[1] = test system: PC-3-LN prostate carcinoma; assay: Orthotopic prostate carcinoma xenograft model in nude mice; type: in vivo, NMRI nu/nu mice
Protocol: The anti-tumor efficacy of therapeutic antibodies is often evaluated in human xenograft tumor studies. In these model systems, human tumors grow as xenografts in immunocompromised mice and therapeutic efficacy is measured by the degree of tumor growth inhibition. The aim of this study was to evaluate whether the antagonistic rat anti-AXL antibody 11B7 of the invention interferes with tumor growth of human prostate cancer cells in nude mice. In brief, on day 0, 7-8 weeks old male NMRI^−nu/nu mice (approximate weight: 30 g after acclimatization) were anesthesized with 1.5-2.0 volume percent isoflurane at an oxygen flow rate of 2 l/min, and 1×10^6 PC-3-LN cells in 25 μl PBS were orthotopically implanted into the prostate. PC-3-LN cells are derived from the PC-3 prostate carcinoma cell line which was infected with a retrovirus coding for a luciferase-neomycin fusion protein. The onset of tumor growth and tumor growth progression was therefore measurable via in vivo bioluminescence imaging. For this purpose, luciferin was injected intraperitoneally (i.p.) into the mice and light emission was measured 10 min post injection using a NightOWL LB 981 bioluminescence imaging system (Berthold Technologies, Germany). Prior to first treatment, mice were randomized and statistical tests performed to assure uniformity in starting tumor volumes (mean, median and standard deviation) across the treatment groups of 10 animals each. On day 8, all treatments started and were continued until day 34, followed by necropsy on day 35. […] In the same experiment as described under “Rat anti-AXL antibodies of the invention reduce human prostate carcinoma growth in nude mice”, relocalization of PC-3-LN tumor cells into other organs (metastasis) was analyzed post necropsy to evaluate anti-metastatic effects of the antagonistic rat anti-AXL antibody 11B7 of the invention. […] Subsequently, light emission was measured using a NightOWL LB 981 bioluminescence imaging system (Berthold Technologies, Germany).

ligand-induced Axl activation in melanoma cell line C-8161 (AXL; same experimental settings, C-8161): Comparable effects
B1: 11B7: antagonistic rat anti-AXL monoclonal antibody, rat IgG1 (antibody, V domains shown)
VL: DIQMTQAPSSLPASLGDRVTITCRASQDIGNYLRWFQQKPGKSPRLMISGATNLAAGVPSRFSGSRSGSDYSLTISSLESEDMADYYCLQSKESPWTFGGGTKLELK
VH: EVQLQESGPGLVKPSQSLSLTCSVTGYSITSNYWGWIRKFPGDKMEWMGYITYSGSTSYNPSLKSRISITRDTSKNQFFLQLNSVTSEDTATYYCAITTFYYWGQGVMVTVSS
ligand-induced Axl activation (relative Axl phosphorylation), concentration-dependent (AXL; 50 ng/ml to 10 μg/ml antibody, 400 ng/ml Gas6, CaSki cervical cancer cells): able to block ligand-induced activation of the receptor tyrosine kinase Axl to similar extent | overall growth of PC-3-LN prostate tumors (in vivo bioluminescence) ([1]; 25 mg/kg i.p. 3x a week, day 8 to 34, compared to isotypic control antibody 1D5): reduced the overall growth of PC-3-LN prostate tumors | occurrence of spleen metastases ([1]; 25 mg/kg i.p. 3x a week, post necropsy, compared to 1D5): reduced the occurrence of spleen metastases | anti-metastatic effect compared with Sutent ([1]; 11B7 25 mg/kg i.p. versus Sutent 40 mg/kg p.o. daily, spleen): stronger than that of Sutent
